Common to all, as to details: both partners purified
Assay [1] addresses T1, recombinant XPO1 (exportin 1/CRM1) (UniProt O14980 1-1071). Kind of assay: ELISA; plates coated with synthetic peptide (10 µg/ml, carbonate buffer pH 9.6); increasing concentrations of recombinant NTF, 2 h, room temperature; anti-HIS detection; apparent Kd. (In an ELISA, binding on a coated surface is turned into a signal by an enzyme label.)
Assay [2] addresses T2, recombinant IPOA5 (importin α5/kap α1) (UniProt P52294 1-538). Kind of assay: ELISA; plates coated with recombinant HCV protein (10 µg/ml, carbonate buffer pH 9.6); recombinant NTF added, 2 h, room temperature; anti-NTF antibodies; apparent Kd.
Assay [3] has as its target T3, recombinant IPO5 (importin β3/kap β3) (UniProt O00410-1 1-1097).
T3 sequence (looked up): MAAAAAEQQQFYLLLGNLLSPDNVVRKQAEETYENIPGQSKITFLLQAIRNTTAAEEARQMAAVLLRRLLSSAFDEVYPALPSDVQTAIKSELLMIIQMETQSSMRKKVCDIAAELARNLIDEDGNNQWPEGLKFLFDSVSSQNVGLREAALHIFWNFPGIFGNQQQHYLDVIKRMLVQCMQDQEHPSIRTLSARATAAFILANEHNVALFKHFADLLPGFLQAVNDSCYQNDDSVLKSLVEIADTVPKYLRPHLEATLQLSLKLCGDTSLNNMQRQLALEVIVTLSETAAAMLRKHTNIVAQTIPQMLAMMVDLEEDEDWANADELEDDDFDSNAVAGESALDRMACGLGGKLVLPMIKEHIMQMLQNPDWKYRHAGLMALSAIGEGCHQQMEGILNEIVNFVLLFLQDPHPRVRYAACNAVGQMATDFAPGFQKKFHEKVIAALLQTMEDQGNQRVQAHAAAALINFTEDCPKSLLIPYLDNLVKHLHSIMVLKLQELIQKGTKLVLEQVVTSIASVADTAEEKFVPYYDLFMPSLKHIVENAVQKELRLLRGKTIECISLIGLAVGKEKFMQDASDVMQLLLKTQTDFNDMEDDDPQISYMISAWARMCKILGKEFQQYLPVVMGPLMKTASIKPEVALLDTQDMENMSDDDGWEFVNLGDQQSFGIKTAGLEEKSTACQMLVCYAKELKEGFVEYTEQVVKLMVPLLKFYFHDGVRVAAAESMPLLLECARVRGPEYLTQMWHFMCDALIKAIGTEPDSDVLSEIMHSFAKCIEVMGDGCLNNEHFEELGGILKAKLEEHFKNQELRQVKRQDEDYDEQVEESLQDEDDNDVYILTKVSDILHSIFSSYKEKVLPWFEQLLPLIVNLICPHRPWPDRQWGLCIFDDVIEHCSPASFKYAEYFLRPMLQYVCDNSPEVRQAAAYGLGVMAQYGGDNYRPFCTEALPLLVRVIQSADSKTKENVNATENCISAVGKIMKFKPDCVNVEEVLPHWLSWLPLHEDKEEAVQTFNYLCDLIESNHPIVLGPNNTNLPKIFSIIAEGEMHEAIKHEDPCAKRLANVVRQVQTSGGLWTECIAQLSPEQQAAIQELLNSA
Described as above.

In assay [4] the target is T1, recombinant XPO1 (exportin 1/CRM1). The description is as above.
Assay [5] deals with T2, recombinant IPOA5 (importin α5/kap α1). Description: ELISA; plates coated with synthetic peptide (10 µg/ml, carbonate buffer pH 9.6); increasing concentrations of recombinant NTF, 2 h, room temperature; anti-HIS detection; apparent Kd.
For assay [6], the target named is T3, recombinant IPO5 (importin β3/kap β3). The description is as above.
The target of assay [7] is T2, recombinant IPOA5 (importin α5/kap α1). The description is as above. The source holds these as a separate data set.

T1 sequence (O14980 whole entry): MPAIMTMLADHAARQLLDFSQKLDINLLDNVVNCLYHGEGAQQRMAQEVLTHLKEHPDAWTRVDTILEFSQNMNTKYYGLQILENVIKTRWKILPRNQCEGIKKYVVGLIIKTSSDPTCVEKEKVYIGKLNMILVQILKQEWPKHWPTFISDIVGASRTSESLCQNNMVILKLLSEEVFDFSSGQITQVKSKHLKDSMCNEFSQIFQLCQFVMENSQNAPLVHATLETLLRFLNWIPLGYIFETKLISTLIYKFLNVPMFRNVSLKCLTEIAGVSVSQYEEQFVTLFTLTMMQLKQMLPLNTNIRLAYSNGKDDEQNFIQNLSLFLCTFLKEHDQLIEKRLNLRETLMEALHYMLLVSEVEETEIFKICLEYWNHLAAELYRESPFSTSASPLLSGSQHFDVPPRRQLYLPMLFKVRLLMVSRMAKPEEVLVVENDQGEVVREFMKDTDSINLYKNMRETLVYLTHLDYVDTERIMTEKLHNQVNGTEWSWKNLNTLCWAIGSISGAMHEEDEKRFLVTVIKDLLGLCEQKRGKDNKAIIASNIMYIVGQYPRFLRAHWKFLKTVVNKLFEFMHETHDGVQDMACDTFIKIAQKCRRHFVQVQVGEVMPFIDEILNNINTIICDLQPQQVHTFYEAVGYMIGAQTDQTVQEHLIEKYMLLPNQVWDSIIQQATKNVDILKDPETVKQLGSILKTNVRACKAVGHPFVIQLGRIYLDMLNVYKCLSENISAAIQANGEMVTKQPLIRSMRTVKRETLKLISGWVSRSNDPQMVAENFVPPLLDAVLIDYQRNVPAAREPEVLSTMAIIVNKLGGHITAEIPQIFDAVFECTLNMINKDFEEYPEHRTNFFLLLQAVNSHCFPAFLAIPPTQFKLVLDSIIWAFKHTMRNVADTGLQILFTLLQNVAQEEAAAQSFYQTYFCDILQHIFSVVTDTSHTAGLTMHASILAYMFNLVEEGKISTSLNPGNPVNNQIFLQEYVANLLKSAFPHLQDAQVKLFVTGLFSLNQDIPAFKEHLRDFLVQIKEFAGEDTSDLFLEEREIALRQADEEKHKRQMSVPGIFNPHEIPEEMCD
T2 sequence (P52294 whole entry): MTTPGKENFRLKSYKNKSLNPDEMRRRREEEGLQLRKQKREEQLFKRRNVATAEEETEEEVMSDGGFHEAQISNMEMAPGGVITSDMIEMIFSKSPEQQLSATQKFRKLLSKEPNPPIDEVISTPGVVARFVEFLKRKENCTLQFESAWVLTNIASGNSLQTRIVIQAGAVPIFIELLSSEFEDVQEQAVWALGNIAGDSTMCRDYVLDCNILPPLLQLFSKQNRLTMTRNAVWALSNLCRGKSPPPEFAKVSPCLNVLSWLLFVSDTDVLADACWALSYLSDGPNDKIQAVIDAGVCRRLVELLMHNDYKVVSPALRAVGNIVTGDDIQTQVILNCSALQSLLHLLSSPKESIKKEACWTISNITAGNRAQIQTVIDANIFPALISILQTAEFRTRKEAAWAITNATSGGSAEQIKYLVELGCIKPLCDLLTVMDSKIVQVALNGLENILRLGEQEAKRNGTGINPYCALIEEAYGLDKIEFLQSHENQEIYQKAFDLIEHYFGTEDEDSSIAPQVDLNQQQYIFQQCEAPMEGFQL

B1: NS2 NES synthetic peptide (fused to penetratin) (peptide)
peptide: LILLTLSPHYKLFLARLIWWLQYFITRQIKIWFQNRRMKWKK
notes: source: synthetic peptide (GL Biochem, HPLC >85%)
In the case of B1, in assay [1], the Kd was found to be 79.8 ± 25.6 nM.

B2: recombinant full-length HCV core protein (natural protein)
chain: STNPKPQRKTKRNTNRRPEDVKFPGGGQIVGGVYLLPRRGPRLGVRTTRKTSERSQPRGRRQPIPKDRRSTGKAWGKPGRPWPLYGNEGLGWAGWLLSPRGSRPSWGPTDPRHRSRNVGKVIDTLTCGFADLMGYIPVVGAPLSGAARAVAHGVRVLEDGVNYATGNLPGFPFSIFLLALLSCITVPVSA
As to B2, the Kd in assay [2] worked out at 36.8 ± 4.83 nM; in assay [3] it was 56 ± 2.78 nM; in assay [4], 23.1 ± 4.07 nM.

B3: Core NES 1 synthetic peptide (fused to penetratin) (peptide)
peptide: KVIDTLTCGFADLMGRQIKIWFQNRRMKWKK
notes: as for B1
On to B3, for which the Kd in assay [1] amounted to 66.7 ± 11.3 nM.

B4: Core NLS 1 synthetic peptide (fused to penetratin) (peptide)
peptide: PKPQRKTKRNTNRRPRQIKIWFQNRRMKWKK
notes: as for B1
B4: the Kd is 161 ± 31.8 nM in assay [5] and 34.8 ± 4.54 nM in assay [6].

B5: HIV-1 Rev NES synthetic peptide (fused to penetratin) (peptide)
peptide: LQLPPLERLTLRQIKIWFQNRRMKWKK
notes: as for B1
In the case of B5, the Kd in assay [1] was determined as 114 ± 71.5 nM.

B6: Core NLS 2 synthetic peptide (fused to penetratin) (peptide)
peptide: PRRGPRLGVRRQIKIWFQNRRMKWKK
notes: as for B1
As to B6, the values for the Kd in assay [5] and in assay [6] were 24.9 ± 1.71 nM and 78.8 ± 6.42 nM, respectively.

B7: NS2 NLS synthetic peptide (fused to penetratin) (peptide)
peptide: PIIFSPMEKKVIVWGRQIKIWFQNRRMKWKK
notes: as for B1
As for B7, the Kd in assay [7] was about 34 nM; in assay [5] it was 79.2 ± 3.89 nM.

B8: Core NES 2 synthetic peptide (fused to penetratin) (peptide)
peptide: LPGCSFSIFLLALLSCITVPVSARQIKIWFQNRRMKWKK
notes: as for B1
B8: in assay [1], the Kd came out at 95.2 ± 26.6 nM.

B9: Core NLS 3 synthetic peptide (fused to penetratin) (peptide)
peptide: PRGRRQPIPKDRRSTGKAWGKPRQIKIWFQNRRMKWKK
notes: as for B1
On to B9, for which the Kd in assay [5] came to 17.5 ± 0.81 nM; in assay [6], 40.4 ± 7.06 nM.

Values taken from paper PMC4259358, “Functional Characterization of Nuclear Localization and Export Signals in Hepatitis C Virus Proteins and Their Role in the Membranous Web” (PLoS ONE, 2014).
